Measurements reported in US4285932A, “Enzyme derivatives for use in the treatment of venous thrombosis” (Beecham Group Limited, priority 1978, dated 1981).

B1: human plasmin: free proteolytic enzyme, in vivo fibrinolytic enzyme (protein, UniProt P00747 20-580; P00747 581-810, looked up)
Plasmin heavy chain A: EPLDDYVNTQGASLFSVTKKQLGAGSIEECAAKCEEDEEFTCRAFQYHSKEQQCVIMAENRKSSIIIRMRDVVLFEKKVYLSECKTGNGKNYRGTMSKTKNGITCQKWSSTSPHRPRFSPATHPSEGLEENYCRNPDNDPQGPWCYTTDPEKRYDYCDILECEEECMHCSGENYDGKISKTMSGLECQAWDSQSPHAHGYIPSKFPNKNLKKNYCRNPDRELRPWCFTTDPNKRWELCDIPRCTTPPPSSGPTYQCLKGTGENYRGNVAVTVSGHTCQHWSAQTPHTHNRTPENFPCKNLDENYCRNPDGKRAPWCHTTNSQVRWEYCKIPSCDSSPVSTEQLAPTAPPELTPVVQDCYHGDGQSYRGTSSTTTTGKKCQSWSSMTPHRHQKTPENYPNAGLTMNYCRNPDADKGPWCFTTDPSVRWEYCNLKKCSGTEASVVAPPPVVLLPDVETPSEEDCMFGNGKGYRGKRATTVTGTPCQDWAAQEPHRHSIFTPETNPRAGLEKNYCRNPDGDVGGPWCYTTNPRKLYDYCDVPQCAAPSFDCGKPQVEPKKCPGR
Plasmin light chain B: VVGGCVAHPHSWPWQVSLRTRFGMHFCGGTLISPEWVLTAAHCLEKSPRPSSYKVILGAHQEVNLEPHVQEIEVSRLFLEPTRKDIALLKLSSPAVITDKVIPACLPSPNYVVADRTECFITGWGETQGTFGAGLLKEAQLPVIENKVCNRYEFLNGRVQSTELCAGHLAGGTDSCQGDSGGPLVCFEKDKYILQGVTSWGLGCARPNKPGVYVRVSRFVTWIEGVMRNN
modifications: Plasmin

Assays:
[1] = system: streptokinase-human plasminogen activator complex; assay: Residual enzyme activity of acylated streptokinase-human plasminogen activator complex; assay type: biochemical; conditions: freeze-dried powder
Procedure: The time for which the reaction is allowed to proceed depends upon the blocking reagent employed, the temperature at which the reaction is carried out and the enzyme selected for blocking. The optimum time period for any particular circumstances may be selected by following the decrease in enzymic activity by incubating aliquots with a chromogenic or fluorogenic substrate.

[2] = system: radio-labelled clot in the inferior vena cava; assay: In vivo fibrinolytic enzyme test: radio-labelled clot in the inferior vena cava of the rabbit; set-up: species or system New Zealand white rabbit; conditions: systemic infusion, blood radioactivity at least twice background within six hours without death
From the text: The agent under test is introduced into the bloodstream at a point where it must pass through the heart to ensure that the agent will be thoroughly mixed with venous blood. Non-specific lytic enzymes attack blood proteins and cause death before any lysis of the clot is observed. Enzymes which have a degree of specificity for fibrin lyse the clot at a dose lower than the lethal dose.
A New Zealand white rabbit (2.5-3.5 kg) is anaesthetised and three cannulas are inserted into the anterior facial vein (referred to as cannula 1 in this description), the left carotid artery (referred to as cannula 2) and the left external iliac vein (referred to as cannula 3). […] The quantity of 50 μl is determined arbitrarily, and represents an amount between the minimum quantity which can be measured accurately and the maximum quantity which can be injected without excessive disturbance of physiological conditions within the isolated vein portion. […] The first swab is transferred to a counting vial, and the level of γ -radiation is measured. […]
Constriction is required in order to prevent dislodgement of the clot. […] A second blood sample (P10) is withdrawn into citrate buffer as above and counted as previously described ten minutes after Po This count is made to check that no additional radio-activity has been washed into the bloodstream, thereby giving an indication of the stability of the clot. […]

Molecule	remaining share of the original enzyme activity [1]	dose giving a positive result in the in vivo fibrinolytic test [2]
p-Anisoyl Streptokinase-Human Plasminogen Activator Complex [Example 26]	less than 5%	
B1		1×10^-7 to 5×10^-6 mol of active catalytic sites per kg of test animal
